According to paper PMC10786891, “Massively parallel profiling of RNA-targeting CRISPR-Cas13d”:
Residue numbers refer to the chain shown, from its start. Names may count otherwise.

T1: EsCas13d, nuclease-dead (Eubacterium siraeum, UniProt B0MS50, R295A;H300A;R849A;H854A)
T1 sequence: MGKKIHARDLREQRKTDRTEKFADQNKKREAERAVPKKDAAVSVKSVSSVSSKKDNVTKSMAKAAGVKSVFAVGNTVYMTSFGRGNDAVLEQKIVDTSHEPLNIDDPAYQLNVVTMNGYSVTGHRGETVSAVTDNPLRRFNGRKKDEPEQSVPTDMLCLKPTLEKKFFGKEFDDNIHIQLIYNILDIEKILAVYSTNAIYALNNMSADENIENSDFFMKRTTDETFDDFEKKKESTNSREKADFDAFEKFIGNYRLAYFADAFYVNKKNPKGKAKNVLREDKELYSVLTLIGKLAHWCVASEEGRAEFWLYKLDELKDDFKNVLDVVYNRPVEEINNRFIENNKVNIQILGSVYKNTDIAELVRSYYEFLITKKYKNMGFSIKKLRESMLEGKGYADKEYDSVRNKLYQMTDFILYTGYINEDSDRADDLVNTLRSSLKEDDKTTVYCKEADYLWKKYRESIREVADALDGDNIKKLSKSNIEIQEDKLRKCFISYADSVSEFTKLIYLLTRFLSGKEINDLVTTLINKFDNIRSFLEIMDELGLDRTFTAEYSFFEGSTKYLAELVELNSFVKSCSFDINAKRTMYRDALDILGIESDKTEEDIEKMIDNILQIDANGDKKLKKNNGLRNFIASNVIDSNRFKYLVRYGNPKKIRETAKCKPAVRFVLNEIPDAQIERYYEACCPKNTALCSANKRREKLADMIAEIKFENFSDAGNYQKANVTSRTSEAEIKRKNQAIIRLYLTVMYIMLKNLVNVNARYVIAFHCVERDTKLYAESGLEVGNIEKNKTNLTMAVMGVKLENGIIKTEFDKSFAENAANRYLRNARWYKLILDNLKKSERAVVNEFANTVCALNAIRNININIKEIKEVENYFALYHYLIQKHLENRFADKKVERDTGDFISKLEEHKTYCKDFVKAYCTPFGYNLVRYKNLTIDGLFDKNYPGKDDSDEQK

B1: target 1 insA 3' of 19 (mixed)
RNA 1: CACCCGUGCAAAAAUGCAGGGGUCUAAAACUGAGCGGAUAACCUCUCUAUGG
RNA 2: GGGAAUGGAUCCACAUCUACGAAUUCGUACCAUAAGAGAGGUUAUCCGCUCACCGAGAUCGGAAGAGCACACGU
B2: target 1 insA 3' of 11,insU 3' of 5 (mixed)
RNA 1: B1 RNA 1
RNA 2: GGGAAUGGAUCCACAUCUACGAAUUCGUACCAUAGAGAGGUAUAUCCGUCUCACCGAGAUCGGAAGAGCACACGU
B3: target 1 C4A,A18C (mixed)
RNA 1: B1 RNA 1
RNA 2: GGGAAUGGAUCCACAUCUACGAAUUCGUACCAUCGAGAGGUUAUCCGAUCACCGAGAUCGGAAGAGCACACGU
B4: target 1 insG 3' of 20,insA 3' of 8 (mixed)
RNA 1: B1 RNA 1
RNA 2: GGGAAUGGAUCCACAUCUACGAAUUCGUACCAGUAGAGAGGUUAUACCGCUCACCGAGAUCGGAAGAGCACACGU
B5: target 1 C2G,A16G (mixed)
RNA 1: B1 RNA 1
RNA 2: B3 RNA 2 with C34A, A36G, A48C, C50G
B6: target 1 complement block 2-14 (mixed)
RNA 1: B1 RNA 1
RNA 2: GGGAAUGGAUCCACAUCUACGAAUUCGUACCAUAGAGUCCAAUAGGCGAGACCGAGAUCGGAAGAGCACACGU
B7: target 1 C6U,U19G (mixed)
RNA 1: B1 RNA 1
RNA 2: B3 RNA 2 with U33G, C34A, C46U, A48C
B8: target 1 G15C,C21U (mixed)
RNA 1: B1 RNA 1
RNA 2: B3 RNA 2 with C31U, C34A, G37C, A48C
B9: target 1 insG 3' of 9,insG 3' of 9 (mixed)
RNA 1: B1 RNA 1
RNA 2: B2 RNA 2 with A42U, U43A, A44G, U45G, C46U, G48C, U49G
B10: target 1 insG 3' of 8,insA 3' of 3 (mixed)
RNA 1: B1 RNA 1
RNA 2: B2 RNA 2 with A42U, U43A, A44U, U45G, U49C, C50U, U51A
B11: target 1 insG 3' of 10 (mixed)
RNA 1: B1 RNA 1
RNA 2: B1 RNA 2 with A35G, G36A, A37G, G38A, A39G, G41U, U43G
B12: target 1 insU 3' of 20,insG 3' of 18 (mixed)
RNA 1: B1 RNA 1
RNA 2: B4 RNA 2 with G33U, A37G, G38A, A39G, G40A, U42G, A44U, U45A, A46U
B13: target 1 insG 3' of 20,insA 3' of 19 (mixed)
RNA 1: B1 RNA 1
RNA 2: B4 RNA 2 with G36A, A37G, G38A, A39G, G40A, U42G, A44U, U45A, A46U
B14: target 1 insA 3' of 22,insG 3' of 16 (mixed)
RNA 1: B1 RNA 1
RNA 2: B4 RNA 2 with C31A, A32C, G33A, A39G, G40A, U42G, A44U, U45A, A46U
B15: target 1 C6U,C7G (mixed)
RNA 1: B1 RNA 1
RNA 2: B3 RNA 2 with C34A, C45G, C46U, A48C
B16: target 1 A1C,C6A (mixed)
RNA 1: B1 RNA 1
RNA 2: B3 RNA 2 with C34A, C46A, A48C, A51C
B17: target 1 insG 3' of 19,insA 3' of 5 (mixed)
RNA 1: B1 RNA 1
RNA 2: B4 RNA 2 with G33U, U34G, A46C, C48G, G49A
B18: target 1 insC 3' of 19,insA 3' of 11 (mixed)
RNA 1: B1 RNA 1
RNA 2: B4 RNA 2 with G33U, U34C, U43A, A44U, U45A, A46U
B19: target 1 C4U,U11C (mixed)
RNA 1: B1 RNA 1
RNA 2: B3 RNA 2 with C34A, U41C, A48U
B20: target 1 G12A,G13A (mixed)
RNA 1: B1 RNA 1
RNA 2: B3 RNA 2 with C34A, G39A, G40A, A48C
B21: target 1 insU 3' of 13,insU 3' of 6 (mixed)
RNA 1: B1 RNA 1
RNA 2: B2 RNA 2 with G40U, U41G, A42U, G48U, U49G
B22: target 1 insC 3' of 17,insC 3' of 16 (mixed)
RNA 1: B1 RNA 1
RNA 2: GGGAAUGGAUCCACAUCUACGAAUUCGUACCAUAGCACGAGGUUAUCCGCUCACCGAGAUCGGAAGAGCACACGU
B23: target 1 insU 3' of 15,insA 3' of 4 (mixed)
RNA 1: B1 RNA 1
RNA 2: B2 RNA 2 with A38U, G39A, U41G, A42U, U49C, C50A
B24: target 1 insU 3' of 18,insU 3' of 7 (mixed)
RNA 1: B1 RNA 1
RNA 2: B4 RNA 2 with G33U, U34A, A35U, A46C, C47U
B25: target 1 insG 3' of 18,insA 3' of 15 (mixed)
RNA 1: B1 RNA 1
RNA 2: B22 RNA 2 with C36G, C38G, G39A
B26: target 1 C7A,G15A (mixed)
RNA 1: B1 RNA 1
RNA 2: B3 RNA 2 with C34A, G37A, C45A, A48C
B27: target 1 insA 3' of 22,insC 3' of 5 (mixed)
RNA 1: B1 RNA 1
RNA 2: B4 RNA 2 with C31A, A32C, G33A, A46C, C48G, G49C
B28: target 1 insG 3' of 22,insC 3' of 22 (mixed)
RNA 1: B1 RNA 1
RNA 2: B22 RNA 2 with C31G, A32C, U33C, G35U, C36A, A37G, C38A
B29: target 1 complement block 4-12 (mixed)
RNA 1: B1 RNA 1
RNA 2: B6 RNA 2 with U38A, C39G, A49U, G50C
B30: target 1 del11,del15 (mixed)
RNA 1: B1 RNA 1
RNA 2: GGGAAUGGAUCCACAUCUACGAAUUCGUACCAUAGAAGGUAUCCGCUCACCGAGAUCGGAAGAGCACACGU
B31: target 1 insC 3' of 8,insA 3' of 7 (mixed)
RNA 1: B1 RNA 1
RNA 2: B2 RNA 2 with A42U, U43A, A44U, U45C, C47A, G48C, U49G
B32: target 1 insA 3' of 17,insU 3' of 6 (mixed)
RNA 1: B1 RNA 1
RNA 2: B4 RNA 2 with G33U, U34A, A35G, G36A, A46C, C48U
B33: target 1 insG 3' of 18,insU 3' of 5 (mixed)
RNA 1: B1 RNA 1
RNA 2: B4 RNA 2 with G33U, U34A, A35G, A46C, C48G, G49U
B34: target 1 G5C,A20C (mixed)
RNA 1: B1 RNA 1
RNA 2: B3 RNA 2 with A32C, C34A, G47C, A48C

Target: T1, EsCas13d, nuclease-dead
Test: crRNA (strand 1, pre-loaded); Mg2+; 40 mM Tris-HCl pH 7.5, 150 mM NaCl, 6 mM MgCl2, 1 mM DTT, 0.1% Tween-20, 0.2 mg/ml BSA; 25 C; 10 min per concentration, then washed
Details: tags: His6-TwinStrep-SUMO cleaved; N-terminal SNAP kept (SNAP-Surface 488); label: 3' end held by stalled T7 RNA polymerase

Row | Binder | Kd
1 | B1 | 15.9 ± 0.7 nM
2 | B2 | 18.7 ± 1.5 nM
3 | B3 | 63 ± 22 nM
4 | B4 | 60 ± 7 nM
5 | B5 | 33.1 ± 1.6 nM
6 | B6 | 71 ± 17 nM
7 | B7 | 48 ± 11 nM
8 | B8 | 9.4 ± 0.7 nM
9 | B9 | 16.2 ± 0.9 nM
10 | B10 | 8.3 ± 0.5 nM
11 | B11 | 23 ± 1.7 nM
12 | B12 | 99 ± 21 nM
13 | B13 | 45 ± 7 nM
14 | B14 | 26.3 ± 2.6 nM
15 | B15 | 7.9 ± 0.8 nM
16 | B16 | 7 ± 0.5 nM
17 | B17 | 42 ± 5 nM

Row | Binder | Kd
18 | B18 | 98 ± 16 nM
19 | B19 | 27 ± 5 nM
20 | B20 | 5.2 ± 0.23 nM
21 | B21 | 17.9 ± 1.3 nM
22 | B22 | 27.3 ± 1.6 nM
23 | B23 | 9.4 ± 0.8 nM
24 | B24 | 47 ± 4 nM
25 | B25 | 61 ± 10 nM
26 | B26 | 14.6 ± 0.5 nM
27 | B27 | 27.7 ± 3.5 nM
28 | B28 | 9.1 ± 0.4 nM
29 | B29 | 19.6 ± 1.3 nM
30 | B30 | 35 ± 5 nM
31 | B31 | 15 ± 0.6 nM
32 | B32 | 14.5 ± 0.8 nM
33 | B33 | 65 ± 11 nM
34 | B34 | 47 ± 7 nM
